This note sets out measurements from publication PMC10259393, “The structural basis of the multi-step allosteric activation of Aurora B kinase” (eLife, 2023).

The target of test [1] is IN-box (C-terminal part of INCENP) IN-box, 790-856. Kind of test: mass photometry at 10 nM complex. Conditions: reference: [Aurora B/IN-box]all-P, as purified; sites T248,S849,S850.
Test [2] addresses T1, Aurora B (59-361 aa) from X. laevis, phosphorylated at Thr248, of the [Aurora B/IN-box]^IN-ΔC construct (X. laevis, UniProt Q6DE08 59-361, phosphothreonine at 248).
T1 construct: Aurora B kinase, Xenopus laevis, residues 59-361; also called Aurora B of [Aurora B/IN-box]^loop-P; not shown: 6xHis, N-terminal, cleaved; GB1 domain of streptococcal protein G, N-terminal, cleaved
Kind of test: co-purification; purified complex after ligation with the synthetic peptide: Superdex S200 16/60, then Ni column by the 6xHis of the ligated IN-box, eluted with imidazole. The note with it: both partners purified.

In test [3] the target is T2, Aurora B (59-361 aa) from X. laevis, dephosphorylated, of the [Aurora B/IN-box]^IN-ΔC construct (X. laevis, UniProt Q6DE08 59-361).
T2 construct: Aurora B kinase, Xenopus laevis, residues 59-361; Thr248 not phosphorylated; also called Aurora B of [Aurora B/IN-box]^IN-P; not shown: 6xHis, N-terminal, cleaved; GB1 domain of streptococcal protein G, N-terminal, cleaved
The test is described as above. The note with it: both partners purified.

Non-standard residues stand in square brackets, D forms with d. pS = N[C@@H](COP(=O)(O)O)C(=O)O

Take “Aurora B 60-361 [Aurora B/IN-box]no-P, λ-phosphatase treated”: the “other: complex molecular weight” value in test [1] is listed as “same; reference ~44”.

B1: Semisynthetic IN-box (790-858, Phe845Cys) with unphosphorylated TSS motif and C-terminal 6xHis, as in [Aurora B/IN-box]^loop-P (domain or fragment, X. laevis)
chain: DESQPRKPIPAWASGNLLTQAIRQQYYKPIDVDRMYGTIDSPKLEELFNKSKPRYCKRTSSAVWHSPPL
notes: INCENP, Xenopus laevis, IN-box residues 790-844; synthetic peptide, IN-box residues 845-858 of X. laevis INCENP with Cys in place of Phe845 (scar of the ligation); also called IN-box of [Aurora B/IN-box]^loop-P; IN-box^Phe845Cys; source: IN-box^ΔC (E. coli, purified, C-terminal thioester) ligated with a synthetic peptide; purified (Superdex S200, Ni column); not shown: 6xHis, C-terminal, kept
For the molecule B1, the binding result in test [2] is “binds”.

B2: Semisynthetic IN-box (790-858, Phe845Cys) phosphorylated at Ser849 and Ser850 with C-terminal 6xHis, as in [Aurora B/IN-box]^IN-P (domain or fragment, X. laevis)
chain: DESQPRKPIPAWASGNLLTQAIRQQYYKPIDVDRMYGTIDSPKLEELFNKSKPRYCKRT[pS][pS]AVWHSPPL-{H2N-H2N-H2N-H2N-H2N-H2N}
notes: INCENP, Xenopus laevis, IN-box residues 790-844; synthetic peptide, IN-box residues 845-858 of X. laevis INCENP with Cys in place of Phe845 (scar of the ligation), both serines of the TSS motif phosphorylated; also called IN-box of [Aurora B/IN-box]^IN-P; IN-box^Phe845Cys; source: IN-box^ΔC (E. coli, purified, C-terminal thioester) ligated with a synthetic phosphopeptide; purified (Superdex S200, …)
In the case of B2, the binding result in test [3] is reported as “binds”.
